± gives the standard deviation of the averaged measurements.
System: Saccharomyces cerevisiae
Assay: protein stability index of tFT-peptide fusion (C-terminal peptide) (PSI (0-1 scale)); higher = more stable (slower turnover)
Details: genetic background: wild type; temperature: 30 C
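Further: PSI is a weighted mean of sequencing reads over stability bins, variants kept only with over 10 reads, mCherry proximal and sfGFP distal, peptide attached via GGGS linker.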

Sequence	protein stability index
GSVSWVLMWSWG	0.623 ± 0.059
SPPPRSPRPFPG	0.6757 ± 0.0012
NDKPKTTQKRTP	0.718 ± 0.0092
PPPPPSAISPTH	0.732 ± 0.0036
PCLSLSFPPLPH	0.736 ± 0.034
CSSTTFADRRFM	0.753 ± 0.062
GEFISRSSRIEI	0.64 ± 0.042
LQDLPRLHALPN	0.727 ± 0.086
PPPSSSLLPLPF	0.817 ± 0.14
GRDKGNLQSLRR	0.732 ± 0.014
NMIIPEAVSLSL	0.672 ± 0.026
GLSGVVGSRCHC	0.713 ± 0.02
QRMKHQKVTSNP	0.732 ± 0.06
TQHKANQGLELI	0.663 ± 0.008
LNHSLLHILSRV	0.656 ± 0.022
PNSTIVATKGVT	0.648 ± 0.076
PRPFAPPPPPHD	0.808 ± 0.094
VTRRIPPRGGPR	0.72 ± 0.074
FPSLLFSSPSAF	0.7 ± 0.038
FRFVFFFRSGLV	0.595 ± 0.063
PRPLPPPLPCPP	0.682 ± 0.015
RCAQKSMALLSD	0.68 ± 0.0097
GGRGAVSGIVRK	0.613 ± 0.014
TSYFRRRRSHSH	0.753 ± 0.01
PRPCSPPPPDPC	0.703 ± 0.022
LNEVSLLSPAPL	0.64 ± 0.057

Sequence	protein stability index
VTISLGGGGGMQ	0.684 ± 0.12
KTEKTKIKKKRM	0.684 ± 0.0075
LPPPPLPPHPPL	0.748 ± 0.067
RPRNRRGGRGDE	0.672 ± 0.0062
FATPDGFVSLWF	0.774 ± 0.14
IMCPVRDSNIFS	0.733 ± 0.026
SRPLPPSLPPPP	0.756 ± 0.0098
EERELGVVWGEV	0.702 ± 0.024
GGVFREEGAAER	0.693 ± 0.021
GRGVWEFGGGGG	0.666 ± 0.056
AREEGRQNQGMP	0.665 ± 0.042
PLRLLSTPSPLS	0.755 ± 0.049
GVDGGGKWRGWG	0.651 ± 0.06
LLGRSPSPTRPT	0.65732 ± 0.00035
FLSFIADVTGKR	0.707 ± 0.019
HGGSFSAFWYLL	0.676 ± 0.027
RKKVRKTKKIKK	0.628 ± 0.089
LVFHSLCFFPLS	0.694 ± 0.014
GGCVGVLGGWGL	0.694 ± 0.0083
PPPPHAHFPPPP	0.652 ± 0.013
FPPCSPPPPAPL	0.625 ± 0.05
RKSSAGLERATG	0.685 ± 0.018
PPPPHPPPPLFP	0.714 ± 0.083
KNDLHGLFLMSE	0.648 ± 0.041
RIRLNHAMSTVV	0.625 ± 0.019
HPSAALLSSCYK	0.677 ± 0.047

Sequence	protein stability index
VEGNLIYKKKYK	0.656 ± 0.053
PLRQRCIYDVPI	0.7688 ± 0.0039
GGVVVRGRASAR	0.717 ± 0.02
FELYGVGLGTCA	0.633 ± 0.17
VPPKHLYPLPPP	0.612 ± 0.007
GGHGRREEKGQR	0.6845 ± 0.0058
SPCRSPPPDLPQ	0.645 ± 0.1
SRGVLLCHCSIA	0.758 ± 0.12
SNLPVSSLPSLS	0.6818 ± 0.0048
PPLPPPSVRPSS	0.63 ± 0.028
CIPVTGLHFRVI	0.6136 ± 0.0035
DLPDLQPACPRF	0.722 ± 0.019
AVCWWGSVGGVG	0.6966 ± 0.0069
LWSIEVEKAKQK	0.708 ± 0.068
DSSRANRCISDR	0.654 ± 0.046
LLLSRLSPPPPS	0.716 ± 0.021
VRGGGRARRRGS	0.7347 ± 0.0044
PASLPPRAPPPL	0.664 ± 0.019
LPPPPPCPPSPL	0.671 ± 0.024
RGPGSNGSLPWF	0.689 ± 0.056
RGTVPHSLDLYL	0.679 ± 0.025
HPMVFRLAAPRL	0.779 ± 0.18
RSIQNLQENIIR	0.663 ± 0.073
SLDISDCGFCLH	0.697 ± 0.018
PPPPPPPYPLIP	0.67 ± 0.013
CIKQTNNQNKSN	0.697 ± 0.045

Sequence	protein stability index
SPFLTPPPPRPA	0.682 ± 0.024
PVPLEAPSPPPP	0.671 ± 0.022
RVHSRSYNVMLD	0.6988 ± 0.00049
FSETDSWCQARS	0.717 ± 0.013
TFLFARLSFCKH	0.613 ± 0.0071
GWWGGGGGAWSG	0.697 ± 0.065
PPPPPPVPSRPL	0.644 ± 0.046
LVMTYGFTSVSR	0.687 ± 0.07
PSSAHLPPPPPP	0.673 ± 0.014
VLMSCLFFGIRY	0.54 ± 0.044
SPLPPPLPPFPP	0.6171 ± 0.0056
QYSDRQGGRATD	0.708 ± 0.015
LLTLPPPRLLSL	0.629 ± 0.022
PLPPFPPSPPFT	0.684 ± 0.036
KPPCFSPTHHCP	0.713 ± 0.0018
RFAWLPAPGRIV	0.647 ± 0.015
LGTETASSGFSG	0.691 ± 0.029
FRLLLFPLPLSP	0.494 ± 0.011
PSTLQPLQRSPR	0.617 ± 0.0014
VQCRIREELWGG	0.6919 ± 0.0047
GVGGFGFGWSMV	0.725 ± 0.057
RVPPAIPSRRAC	0.682 ± 0.06
GCRCSSGLGGFW	0.649 ± 0.11
KTTETVLRKRTK	0.737 ± 0.049
SVIFSRSFCCPS	0.639 ± 0.11
FFSFILGGFLLG	0.6682 ± 0.00082

Sequence	protein stability index
PPLAPLPSAPLR	0.674 ± 0.058
AAPAAPATPSPR	0.716 ± 0.065
NMGRCEGGKTAR	0.643 ± 0.016
VPPALPRSPGPP	0.72 ± 0.069
PRGPPGILSRPP	0.6736 ± 0.00089
HPPSSLLSPPSP	0.702 ± 0.042
KEQKKKLKKKHG	0.594 ± 0.099
IKIIKNDQKRIK	0.709 ± 0.061
WGGTAGWLHIGV	0.747 ± 0.076
LSFLSDVRHIRE	0.643 ± 0.1
AYWWSLGRALGC	0.745 ± 0.065
GQCRFVEDVYVT	0.685 ± 0.009
SILTALGEVLLV	0.665 ± 0.013
PSPPPPPPPSVR	0.69 ± 0.042
MTMGSIGNFDQG	0.611 ± 0.073
DLSAGKWSRSSD	0.689 ± 0.023
PATKQFLLRGGR	0.713 ± 0.0079
ARIWLGSTSVSR	0.739 ± 0.14
CPRWHDCLACIE	0.665 ± 0.011
SLSPPSSPLPPP	0.703 ± 0.053
WRLDDPTLISNI	0.693 ± 0.032
LPASWSRVSFAG	0.6825 ± 0.0034
SRGRAGESRPRG	0.712 ± 0.069
LSSLPSTFPPLP	0.692 ± 0.029
PRPAPPPPSTPP	0.6411 ± 0.0051
ADKIPHSDNRSR	0.697 ± 0.01

Sequence	protein stability index
PRPPYPRPPPPP	0.725 ± 0.074
TQKESEKLNMSK	0.667 ± 0.064
RVSPWSDLSAFL	0.745 ± 0.045
LYSGIAVSATSL	0.734 ± 0.048
RSARGQFRGISC	0.739 ± 0.23
SKLEREKQNKGY	0.634 ± 0.021
TRGMDYWLFTGD	0.706 ± 0.0031
LPPSLPPRLPPP	0.658 ± 0.04
ALASPIPCPPPP	0.715 ± 0.056
VICSIRGYNRLR	0.711 ± 0.038
PLAPSTPPNLSN	0.643 ± 0.073
SSPPPPALPEYQ	0.699 ± 0.0082
PPSPSPLPPRPL	0.717 ± 0.04
RRRGEREKRPRA	0.653 ± 0.021
WVVLGGRSGCGA	0.667 ± 0.053
SCVWVPGCGPSR	0.679 ± 0.0072
LRPTPLPRPSPA	0.691 ± 0.024
LTKPPHERREKS	0.635 ± 0.019
ASFFTARMYIIF	0.676 ± 0.031
EEMTVKKERKRI	0.641 ± 0.051
FFVGGVTDLFVS	0.724 ± 0.0092
PSPPPPTPPVRL	0.722 ± 0.11
YLKVNDELERRR	0.695 ± 0.05
ATPTSPSRPFLL	0.707 ± 0.086
RSMLRVELSGVA	0.562 ± 0.031
RDRAPLLNLACL	0.689 ± 0.074

Sequence	protein stability index
DITQSRIHMTNI	0.661 ± 0.055
RRRPNSSMYRVS	0.658 ± 0.015
KGHQGGLSEGMI	0.6 ± 0.092
SGHRLGRGQGQR	0.67 ± 0.02
GGGVGGPGGVLK	0.675 ± 0.075
FVFAYLPSYEAM	0.729 ± 0.023
KIKKKKKKNKEH	0.591 ± 0.028
RARRYNRQSTPT	0.702 ± 0.023
RPPPHLTPRVSL	0.689 ± 0.047
GYTSADHATALY	0.755 ± 0.054
QLNGTVTRPGDF	0.7 ± 0.036
LRGEGPGRKGGA	0.67 ± 0.05
SGATVGVLCFAS	0.58 ± 0.006
PRGKVLPFAFAC	0.554 ± 0.019
DSLTNAELVFAC	0.607 ± 0.0068
SRRGARRHVRLK	0.6757 ± 0.00074
VGGGRAALRWYG	0.673 ± 0.018
LSWSYTGVCRSE	0.69 ± 0.06
TILLNWSQVHME	0.7 ± 0.016
SKTIRDTYIFKR	0.816 ± 0.15
SLPPPSSPPPPL	0.692 ± 0.089
PGRGRQGSGIGM	0.671 ± 0.062
PPPPPPARLPSP	0.711 ± 0.017
EGTASGSSVRLE	0.693 ± 0.049
HGVVGWKVNVGG	0.695 ± 0.018
KTRPVCKVSCKL	0.77 ± 0.092

Sequence	protein stability index
NEPEKGQRKRRE	0.8051 ± 0.0073
SPMELEHSSAVP	0.6605 ± 0.0046
HPVSVKPSESSR	0.668 ± 0.073
FSLPLSPRGDCP	0.6991 ± 0.0014
GARERRRRRRRP	0.713 ± 0.025
GRWGRGGASVVT	0.649 ± 0.029
EQTIGDRVPGKG	0.658 ± 0.051
PPAPPPPPPSPP	0.659 ± 0.029
YREIVKQTENKR	0.673 ± 0.0083
PLTNPPRSRKSS	0.783 ± 0.12
PPSDRPTVPPPP	0.709 ± 0.017
VKGKKREVTDPR	0.6376 ± 0.0023
TIHKRTLEGSYN	0.65 ± 0.048
LCLIGQPQTRVS	0.695 ± 0.17
TNGYWVIACKKF	0.672 ± 0.069
SVFSVVLSLSGS	0.706 ± 0.051
EGHTRLPSPSPS	0.677 ± 0.009
SMSEYGLLTMLE	0.669 ± 0.011
KKKRKKNRKTNK	0.67 ± 0.02
RKNQGKKREPRA	0.653 ± 0.079

Source: the supplement of paper PMC10724198
